For 1 molecule, EC50 results are on record in patent US20240108766A1 (Bayer, published 2024).

This assay concerns the target T1, human LRRC15 expressed on cells (human, UniProt Q8TF66 22-581).
T1 construct: whole, on cells; On HEK293 cells transfected with LRRC15/ZsGreen1 (Retrogenix), on HT29 cells transfected with human LRRC15, and endogenous on Saos-2; also called LRRC15/ZsGreen1 transfected HEK293 cells; HT29-LRRC15
T1 sequence (looked up): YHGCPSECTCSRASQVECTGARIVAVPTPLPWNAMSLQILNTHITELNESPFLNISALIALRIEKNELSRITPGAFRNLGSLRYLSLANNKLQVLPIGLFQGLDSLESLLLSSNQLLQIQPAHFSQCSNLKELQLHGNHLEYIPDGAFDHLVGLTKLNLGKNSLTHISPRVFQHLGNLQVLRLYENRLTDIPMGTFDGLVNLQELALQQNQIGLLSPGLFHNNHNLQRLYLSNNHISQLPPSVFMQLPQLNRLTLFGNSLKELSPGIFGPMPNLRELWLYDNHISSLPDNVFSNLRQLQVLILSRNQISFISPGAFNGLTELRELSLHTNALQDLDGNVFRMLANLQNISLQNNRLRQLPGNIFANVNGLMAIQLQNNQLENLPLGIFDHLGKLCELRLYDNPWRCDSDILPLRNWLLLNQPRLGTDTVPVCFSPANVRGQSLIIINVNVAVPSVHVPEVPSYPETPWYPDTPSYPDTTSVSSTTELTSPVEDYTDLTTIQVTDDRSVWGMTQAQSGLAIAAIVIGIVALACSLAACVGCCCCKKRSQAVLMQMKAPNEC
As to the kind of experiment: flow cytometry, transfected HEK293. (Flow cytometry measures light scatter and fluorescence of single cells or particles in a stream.)

B1: TPP-17421 (antibody, human IgG1, kappa, V domains shown)
VH: EVQLVQSGAEVKKPGASVKVSCKASGYKFSSYWIEWVKQAPGQGLEWIGEILPGSDWTNYNEKFKDRATFTSDTSINTAYMELSRLRSDDTAVYYCARDRGNYRAWFQYWGQGTLVTVSS
VL: DIQMTQSPSSLSASVGDRVTITCRASQSISSYLNWYQQKPGGAPKFLIYYASSLQSGVPSRFSGSGSGTDYTLTISSLQPEDFATYYCQQGLELPWTFGGGTKVEIKR
notes: also called 438H-M306-C11-hIgG1Kappa
The EC50 is the concentration needed to bring the measured effect to its halfway point. Higher therefore signals weaker potency. Regarding B1, the midpoint of the response, the EC50, lay at 0.42 µg/mL.
